Measured values from CN110404066A (QILU PHARMACEUTICAL CO LTD, dated 2019).

Key:
[1] = target: T1, PD-1抗原 (UniProt Q15116 25-167, limits assumed); test: SPR (Biacore T200), antibody captured by anti-human Fc on CM5, PD-1 antigen as analyte, 1:1 model, first repeat
[2] = target: T1, PD-1抗原; test: SPR (Biacore T200), antibody captured by anti-human Fc on CM5, PD-1 antigen as analyte, 1:1 model, second repeat
[3] = target: T1, PD-1抗原; test: SPR (Biacore T200), antibody captured by anti-human Fc on CM5, PD-1 antigen as analyte, mean of two repeats

T1 sequence (Q15116 25-167 limits assumed): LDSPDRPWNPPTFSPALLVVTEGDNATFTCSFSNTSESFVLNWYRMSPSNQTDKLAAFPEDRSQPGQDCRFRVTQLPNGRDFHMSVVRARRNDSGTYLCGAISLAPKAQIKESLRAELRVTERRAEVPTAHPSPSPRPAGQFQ

B1: 抗人PD-1的单克隆抗体ZMR01 (antibody, V domains shown)
VH: QVQLVQSGAEVKKPGASVKVSCKASGYTFTNYWIHWVRQAPGQGLEWMGEIDPYDSYTNYNQKFKGRVTMTVDKSTSTVYMELSSLRSEDTAVYYCARPGFTYGGMDFWGQGTLVTVSS
VL: DIQMTQSPSSLSASVGDRVTITCKSSQSLFNSGNQKNYLAWYQQKPGKVPKLLIYGASTRDSGVPYRFSGSGSGTDFTLTISSLQPEDVATYYCQNDHYYPYTFGGGTKVEIK
B1 showed a Kd [1] of 1.91 nM, a Kd [2] of 1.82 nM and a Kd [3] of 1.87 nM.
